The test system of one test is U10-25* dsDNA substrate. The test is described as follows: Uracil excision assay, dsDNA preincubated with RPA-WT or RPA-ΔWH. Format: biochemical. As to conditions: 100 nM U10-25* dsDNA. On the procedure:
(§1) 3′-FAM-labelled, PAGE-purified oligonucleotide substrates were from Sigma-Aldrich. Unless otherwise indicated, the substrate (25 nt) harboured uracil at position 10 in a polyC sequence to avoid secondary structures (U10-25*: […]-FAM). Double-stranded substrate was generated by annealing (heating followed by slow cooling) U10-25* to a non-labelled complementary oligo (A16-25: […]). All assays were performed at 22°C in 10 mM Tris–HCl pH 7.5, 50 mM NaCl, 1 mM DTT, 0.1 mM EDTA, 0.5 mg/ml BSA.
(§2) Varying amounts of UNG were then added, and the mixtures incubated for 10 min in a water bath. To avoid unspecific interactions and binding of enzyme and DNA to the assay tube surface, low-DNA binding tubes and excess of BSA was used in all reactions. Reactions were quenched and AP sites cleaved in 10% piperidine at 90°C for 20 min. Samples were dried by vacuum centrifugation and suspended in formamide-containing loading buffer. Product and substrate were separated in 12% PAGE/7M urea–0.5× TBE gels, bands visualised in ChemiDoc™ Imager (Bio-Rad) and quantified by Image Lab software (Bio-Rad). Importantly, all assays in which two parameters were compared (e.g. RPA-coated versus naked substrate or WT versus mutated protein) were performed in parallel with the exact same DNA/protein dilutions.

The subject of the next test is U10-25* ssDNA substrate. The test is described as follows: Uracil excision assay, RPA-coated versus naked ssDNA. Format: biochemical. As to conditions: 1 μM RPA, 100 nM U10-25* ssDNA; 10 min, 22°C; three independent experiments. On the procedure: as §1, §2

B1: UNG-CD: catalytic UNG domain, starting at UNG2 aa 93, lacking the N-terminal RPA-binding helix (protein)
chain: GFGESWKKHLSGEFGKPYFIKLMGFVAEERKHYTVYPPPHQVFTWTQMCDIKDVKVVILGQDPYHGPNQAHGLCFSVQRPVPPPPSLENIYKELSTDIEDFVHPGHGDLSGWAKQGVLLLNAVLTVRAHQANSHKERGWEQFTDAVVSWLNQNSNGLVFLLWGSYAQKKGSAIDRKRHHVLQTAHPSPLSVYRGFFGCRHFSKTNELLQKSGKKPIDWKEL
As to B1, the “fold increased enzyme concentration to convert similar amounts of substrate in presence of RPA-WT” value with U10-25* dsDNA substrate (500 nM RPA-WT) is ~200 fold. In addition, the “fold increased enzyme concentration to convert similar amounts of substrate in presence of RPA-ΔWH” value in the test with U10-25* dsDNA substrate (500 nM RPA-ΔWH) was ~50 fold. The “fold reduced activity with RPA-coated ssDNA compared to naked DNA substrate” value in the test on U10-25* ssDNA substrate turned out to be 1000 fold.

The values are drawn from article PMC8053108, “RPA2 winged-helix domain facilitates UNG-mediated removal of uracil from ssDNA; implications for repair of mutagenic uracil at the replication fork” (Nucleic Acids Research, 2021).
